Measured values: paper PMC8319318 (2021)

Target: actin filament (skeletal muscle actin) (Oryctolagus cuniculus, UniProt P68135)
Experiment: TIRF microscopy (steady-state fluorescence density)

Kd: 7.82 nM
B1: anillin (protein)
chain: MDPFTEKLLERTRARRENLQRKMAERPTAAPRSMTHAKRARQPLSEASNQQPLSGGEEKSCTKPSPSKKRCSDNTEVEVSNLENKQPVESTSAKSCSPSPVSPQVQPQAADTISDSVAVPASLLGMRRGLNSRLEATAASSVKTRMQKLAEQRRRWDNDDMTDDIPESSLFSPMPSEEKAASPPRPLLSNASATPVGRRGRLANLAATICSWEDDVNHSFAKQNSVQEQPGTACLSKFSSASGASARINSSSVKQEATFCSQRDGDASLNKALSSSADDASLVNASISSSVKATSPVKSTTSITDAKSCEGQNPELLPKTPISPLKTGVSKPIVKSTLSQTVPSKGELSREICLQSQSKDKSTTPGGTGIKPFLERFGERCQEHSKESPARSTPHRTPIITPNTKAIQERLFKQDTSSSTTHLAQQLKQERQKELACLRGRFDKGNIWSAEKGGNSKSKQLETKQETHCQSTPLKKHQGVSKTQSLPVTEKVTENQIPAKNSSTEPKGFTECEMTKSSPLKITLFLEEDKSLKVTSDPKVEQKIEVIREIEMSVDDDDINSSKVINDLFSDVLEEGELDMEKSQEEMDQALAESSEEQEDALNISSMSLLAPLAQTVGVVSPESLVSTPRLELKDTSRSDESPKPGKFQRTRVPRAESGDSLGSEDRDLLYSIDAYRSQRFKETERPSIKQVIVRKEDVTSKLDEKNNAFPCQVNIKQKMQELNNEINMQQTVIYQASQALNCCVDEEHGKGSLEEAEAERLLLIATGKRTLLIDELNKLKNEGPQRKNKASPQSEFMPSKGSVTLSEIRLPLKADFVCSTVQKPDAANYYYLIILKAGAENMVATPLASTSNSLNGDALTFTTTFTLQDVSNDFEINIEVYSLVQKKDPSGLDKKKKTSKSKAITPKRLLTSITTKSNIHSSVMASPGGLSAVRTSNFALVGSYTLSLSSVGNTKFVLDKVPFLSSLEGHIYLKIKCQVNSSVEERGFLTIFEDVSGFGAWHRRWCVLSGNCISYWTYPDDEKRKNPIGRINLANCTSRQIEPANREFCARRNTFELITVRPQREDDRETLVSQCRDTLCVTKNWLSADTKEERDLWMQKLNQVLVDIRLWQPDACYKPIGKP
modifications: anillin C-terminal GFP tag; F-actin stabilised with biotin-phalloidin
